Laboratory results reported in patent US20230293705A1, “NANOPARTICLES INCLUDING A GLATIRAMOID USEFUL IN POLYNUCLEOTIDE DELIVERY” (King AbdulAziz University, priority 2017, published 2023).
No end group written: not given here.

B1: K100: (KKKKKKKKKK)n=10 (SEQ ID NO: 2), Mw = 16,000 Da, high molecular weight polylysine (peptide)
chain: KKKKKKKKKKKKKKKKKKKKKKKKKKKKKKKKKKKKKKKKKKKKKKKKKKKKKKKKKKKKKKKKKKKKKKKKKKKKKKKKKKKKKKKKKKKKKKKKKKKK
modifications: ten repeats of SEQ ID NO:2 motif

Tests used:
pDNA (pGL3) = experiment: Agarose gel electrophoresis of polycation-pDNA nanoparticles; format: physicochemical; conditions: for immobilization of pDNA in agarose gel: N/P ratio of 0.5
Procedure: Nanoparticle Formation. GA-pDNA nanoparticles, K100-pDNA nanoparticles, and K9-pDNA nanoparticles were prepared by adding 15 µL of the GA, K100, or K9 solutions at polymer nitrogen to pDNA phosphate ([…]) of pDNA (TAE Buffer (1x) was used as a solution for DNA storage), followed by repeated pipetting for 20-25 seconds. At that point, 15 µL of CaCl2 (0 or 38 mmol/L) was added to determine the effect of calcium. After formulating, samples were stored at 4° C. for ~20 minutes. PEI-pDNA nanoparticles were prepared by adding 15 µL of PEI solution (N/P ratio of 10) to 10 µL (0.1 µg/µL) of pDNA followed by pipetting for 20-25 seconds. After preparing PEI-pDNA nanoparticles, they were stored at 4° C. for ~20 minutes. All nanoparticles in this study were prepared immediately before each experiment.
Agarose Gel Electrophoresis. GA-pDNA nanoparticles, K100-pDNA nanoparticles, and K9-pDNA nanoparticles were prepared as defined above and subsequently, 4 µL of Tris-acetate-EDTA (TAE) buffer was added. Then, 4 µL of SYBR Green 1 was mixed with the nanoparticles. Afterward, the mixture was stored at 4° C. for 20-25 minutes. Then, 7 µL of 6X DNA loading dye (Takara Bio Inc., Japan) was added. A one kb DNA ladder (Promega, Madison, WI) was used. The mixture solutions were loaded onto a 1% agarose gel, and electrophoresed for 30 minutes at 110 V.

A549 cells = experiment: MTS cytotoxicity assay in A549 cells; format: cell-based, human
Procedure: (§1) Cytotoxicity Assay. Cytotoxicity of GA, K100, and K9, PEI, and CaCl2 was determined using a Cell Titer 96® AQueous Non-Radioactive Cell Proliferation Assay (MTS) obtained from Promega (Madison, Wisconsin). A549 and HeLa cells were cultured in a 96-well plate as described previously. Cells were treated with the samples for ~24 hours. Then, the media were replaced with a mixture of 100 µL of fresh serum medium and 20 µL of MTS. The plate was incubated for 3-4 hours in the incubator. To determine cell viability, the absorbance of each well was measured by a microplate reader (SpectraMax; Molecular Devices Crope, CA) at 490 nm and normalized to untreated control cells.

HeLa cells = experiment: MTS cytotoxicity assay in HeLa cells; format: cell-based, human; conditions: ~24 hours treatment
Procedure: as §1

Row | Molecule | immobilization of pDNA in agarose gel (pDNA (pGL3)) | cytotoxicity (A549 cells; up to 1 mg/mL, cell line not stated at the place (A549 and HeLa tested)) | complexation of pDNA in agarose gel (pDNA (pGL3); N/P ratio of 1) | cytotoxicity (MTS) (A549 cells; A549 cells, ~24 hours treatment) | cytotoxicity (MTS) (HeLa cells)
1 | Glatiramer Acetate [GA] | able to immobilize pDNA completely | negligible cytotoxicity | – | – | –
2 | K9: KKKKKKKKK (SEQ ID NO: 1), C-terminal amide, Mw = 1170.65 Da (KKKKKKKKK-NH2) | did not | – | did not completely complex pDNA | – | –
3 | B1 | able to immobilize pDNA completely | – | – | highly cytotoxic at low concentrations | highly cytotoxic at low concentrations
